Results reported in article PMC8072242 (Proceedings of the National Academy of Sciences of the …, 2021).

T1: MsDyP (unencapsulated DyP) (Mycolicibacterium smegmatis, UniProt A0R4G9)
T1 sequence (A0R4G9 1-343): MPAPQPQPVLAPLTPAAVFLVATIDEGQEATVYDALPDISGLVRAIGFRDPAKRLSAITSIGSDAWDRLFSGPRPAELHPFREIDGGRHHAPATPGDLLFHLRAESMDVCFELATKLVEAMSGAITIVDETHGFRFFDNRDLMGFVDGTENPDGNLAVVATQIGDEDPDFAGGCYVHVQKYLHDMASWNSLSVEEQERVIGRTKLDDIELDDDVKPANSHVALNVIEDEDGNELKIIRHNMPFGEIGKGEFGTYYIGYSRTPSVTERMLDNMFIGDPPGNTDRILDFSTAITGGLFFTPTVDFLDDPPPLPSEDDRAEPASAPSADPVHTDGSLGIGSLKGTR


Key:
[1] = molecular target: T1, MsDyP (unencapsulated DyP); assay type: biochemical
cryo-EM structure = molecular target: the molecule itself; test: cryo-EM structure

| Molecule | peroxidase assay, oxidation monitored at 430 nm [1] | stoichiometry N (cryo-EM structure) |
| --- | --- | --- |
| Oc1cccc(O)c1O [pyrogallol] | utilizing H2O2 as the electron acceptor and pyrogallol (Sigma P0381-25g) as an electron donor | – |
| CFP-29 (29 kDa culture filtrate protein), encapsulin shell protein of Mycobacterium smegmatis (natural protein) MNNLYRDLAPITESAWAEIELEATRTFKRHIAGRRVVDVSGPNGPTTASVSTGHLLDVSPPGDGVIAHLRDAKPLVRLRVPFTVARRDIDDVERGSQDSDWDPVKDAAKKLAFVEDRAIFEGYAAASIEGIRSSSSNPALALPDDAREIPDVIAQALSELRLAGVDGPYSVLLSAETYTKVSETTAHGYPIREHINRLVDGEIIWAPAIDGAFVLSTRGGDFDLQLGTDVSIGYLSHDAEVVHLYMEETMTFLCYTAEASVALTP | – | 60 |
| DyP (dye-decolorizing peroxidase), native cargo of the Mycobacterium smegmatis encapsulin (enzyme) MPAPQPQPVLAPLTPAAVFLVATIDEGQEATVYDALPDISGLVRAIGFRDPAKRLSAITSIGSDAWDRLFSGPRPAELHPFREIDGGRHHAPATPGDLLFHLRAESMDVCFELATKLVEAMSGAITIVDETHGFRFFDNRDLMGFVDGTENPDGNLAVVATQIGDEDPDFAGGCYVHVQKYLHDMASWNSLSVEEQERVIGRTKLDDIELDDDVKPANSHVALNVIEDEDGNELKIIRHNMPFGEIGKGEFGTYYIGYSRTPSVTERMLDNMFIGDPPGNTDRILDFSTAITGGLFFTPTVDFLDDPPPLPSEDDRAEPASAPSADPVHTDGSLGIGSLKGTR | – | 12 |
